{"source": "patent US20240336681A1", "about": "(LUDWIG MAXIMILIANS UNIVERSIT T M NCHEN, published 2024)", "binders": {"B1": {"name": "2D6-076 (antibody, IgG1, V domains shown)", "VH": "QVELVQSGPEVKKPGSSVKVSCKASGYTFPSYDINWVRQRPGQGLEWMGWIYPRDGSPKYNEKFKGRVTITADTSTSTAYMELHSLRSEDTAVYYCARSVYYGTQFAYWGQGTLVTVSA", "VL": "DIVLTQSPSSLAVSLGERVTMSCKSSQSLLNSRTRKNYLAWYQQKPGQPPKLLIYWASTRDSGVPDRFSGSGSGTDFTLTISSLQAEDVAVYYCQQSFNLVTFGGGTKLEIK", "notes": "hIgG1 (humanized IgG1); only the variable domains are tied to the construct; also called VH2/VL2.7"}, "B2": {"name": "2D6-005 (antibody, IgG4, V domains shown)", "VH": "B1 VH", "VL": "DIVLTQSPSSLSASVGDRVTMSCKSSQSLLNSRTRKNYLAWYQQKPGKAPKLLIYWASTRDSGVPSRFSGSGSGTDFTLTISSLQPEDIATYYCKQSFNLVTFGGGTKLEIK", "notes": "hIgG4 (humanized IgG4), human kappa constant light chain from vector; only the variable domains are tied to the construct; also called VH2/VL1"}, "B3": {"name": "2D6-016 (antibody, IgG4, V domains shown)", "VH": "QVQLVESGGGLVQPGGSLRLSCAASGYTFPSYDINWVRQAPGKGLEWVGWIYPRDGSPKYNEKFKGRFTISADTSKNTAYLQMNSLRAEDTAVYYCARSVYYGTQFAYWGQGTLVTVSS", "VL": "B2 VL with L4M, M21I, S22T, S66D, I89F, G105Q, L109V", "notes": "hIgG4 (humanized IgG4); only the variable domains are tied to the construct; also called VH4/VL4"}, "B4": {"name": "2D6-015 (antibody, IgG4, V domains shown)", "VH": "B3 VH", "VL": "B2 VL with V3Q, L4M, M21I, S22T, I89F, G105Q, L109V", "notes": "hIgG4 (humanized IgG4); only the variable domains are tied to the construct; also called VH4/VL3"}, "B5": {"name": "2D6-066 (antibody, IgG1, V domains shown)", "VH": "B1 VH with Y52I", "VL": "B1 VL with L4M, Q95K", "notes": "hIgG1 (humanized IgG1); only the variable domains are tied to the construct; also called VH2.4/VL2"}, "B6": {"name": "2D6-067 (antibody, IgG1, V domains shown)", "VH": "B1 VH with D55F", "VL": "B1 VL with L4M, Q95K", "notes": "hIgG1 (humanized IgG1); only the variable domains are tied to the construct; also called VH2.5/VL2"}, "B7": {"name": "2D6-000 (antibody, V domains shown)", "VH": "QVQLQQSGPELVKPGTSVTLSCKASGYTFPSYDINWMKQRPGQGLEWIGWIYPRDGSPKYNEKFKGKATLTVDTSSSTAYMELHSLTSEDSAVYFCARSVYYGTQFAYWGQGTLVTVSA", "VL": "DIVMSQSPSSLAVSAGEKVTMSCKSSQSLLNSRTRKNYLAWYQQKPGQSPKLLIYWASTRDSGVPDRFTGSGSGTDFTLTISSVQAEDLAVYYCKQSFNLVTFGAGTKLELK", "notes": "Constant regions come from the vectors pFUSE-CHIg-hG4 and pFUSE2-CLIg-hk; also called anti-CD47 IgG4 (2D6-000)"}, "B8": {"name": "2D6-046 (bispecific antibody, part only; not given: linkers and anti-TAA IgG1 chains, V domains shown, not shown: another chain or arm of the molecule; large carriers; small tags and cut ends)", "VH": "B1 VH", "VL": "B1 VL"}, "B9": {"name": "2D6-036 (bispecific antibody, part only; not given: linkers and anti-TAA IgG1 chains, V domains shown, not shown: another chain or arm of the molecule; large carriers; small tags and cut ends)", "VH": "B1 VH with Y52I", "VL": "B1 VL with Q95K"}, "B10": {"name": "2D6-037 (bispecific antibody, part only; not given: linkers and anti-TAA IgG1 chains, V domains shown, not shown: another chain or arm of the molecule; large carriers; small tags and cut ends)", "VH": "B1 VH with D55F", "VL": "B1 VL with Q95K"}, "B11": {"name": "2D6-002 (antibody, IgG4, V domains shown)", "VH": "B1 VH with P9A, Y27G, R40A, T74E, H84S, A119S", "VL": "B1 VL with L4M, Q95K", "notes": "also called VH1/VL2"}, "B12": {"name": "2D6-010 (antibody, IgG4, V domains shown)", "VH": "B3 VH with P30T", "VL": "B1 VL with L4M, Q95K", "notes": "also called VH3/VL2"}, "B13": {"name": "2D6-013 (antibody, IgG4, V domains shown)", "VH": "B3 VH", "VL": "B2 VL", "notes": "also called VH4/VL1"}, "B14": {"name": "2D6-014 (antibody, IgG4, V domains shown)", "VH": "B3 VH", "VL": "B1 VL with L4M, Q95K", "notes": "also called VH4/VL2"}, "B15": {"name": "2D6-001 (antibody, IgG4, V domains shown)", "VH": "B1 VH with P9A, Y27G, R40A, T74E, H84S, A119S", "VL": "B2 VL", "notes": "also called VH1/VL1"}, "B16": {"name": "2D6-003 (antibody, IgG4, V domains shown)", "VH": "B1 VH with P9A, Y27G, R40A, T74E, H84S, A119S", "VL": "B2 VL with V3Q, L4M, M21I, S22T, I89F, G105Q, L109V", "notes": "also called VH1/VL3"}, "B17": {"name": "2D6-004 (antibody, IgG4, V domains shown)", "VH": "B1 VH with P9A, Y27G, R40A, T74E, H84S, A119S", "VL": "B2 VL with L4M, M21I, S22T, S66D, I89F, G105Q, L109V", "notes": "also called VH1/VL4"}, "B18": {"name": "2D6-009 (antibody, IgG4, V domains shown)", "VH": "B3 VH with P30T", "VL": "B2 VL"}, "B19": {"name": "2D6-006 (antibody, IgG4, V domains shown)", "VH": "B1 VH", "VL": "B1 VL with L4M, Q95K", "notes": "also called VH2/VL2"}, "B20": {"name": "2D6-007 (antibody, IgG4, V domains shown)", "VH": "B1 VH", "VL": "B2 VL with V3Q, L4M, M21I, S22T, I89F, G105Q, L109V", "notes": "also called VH2/VL3"}, "B21": {"name": "2D6-008 (antibody, IgG4, V domains shown)", "VH": "B1 VH", "VL": "B2 VL with L4M, M21I, S22T, S66D, I89F, G105Q, L109V", "notes": "also called VH2/VL4"}, "B22": {"name": "2D6-011 (antibody, IgG4, V domains shown)", "VH": "B3 VH with P30T", "VL": "B2 VL with V3Q, L4M, M21I, S22T, I89F, G105Q, L109V", "notes": "also called VH3/VL3"}, "B23": {"name": "2D6-012 (antibody, IgG4, V domains shown)", "VH": "B3 VH with P30T", "VL": "B2 VL with L4M, M21I, S22T, S66D, I89F, G105Q, L109V", "notes": "also called VH3/VL4"}}, "note": "Substitutions are numbered along the chain they refer to."}
{"target": "T1, recombinant C-terminally His-tagged human CD47 (extracellular domain) (human, UniProt Q08722 19-141)", "T1 construct": "also called recombinantly expressed human CD47 extracellular domain", "T1 sequence (Q08722 19-141)": "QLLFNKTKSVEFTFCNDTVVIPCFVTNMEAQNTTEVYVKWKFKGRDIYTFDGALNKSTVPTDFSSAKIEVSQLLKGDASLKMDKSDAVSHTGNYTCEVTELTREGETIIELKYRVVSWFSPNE", "test": "SPR, Biacore X100; construct captured by anti-human Fc on CM5 chip, human CD47 extracellular domain as analyte, 1:1 fit", "experimental": "(§1) Surface Plasmon Resonance (SPR) was used in addition to analyse binding of the different protein constructs to recombinantly expressed CD47 and to determine their affinity. Association (Kₒₙ) and dissociation (Koff) rate constants were determined by SPR using a Biacore™ X-100 (Cytiva). Using the Human antibody capture kit an anti-human Fc antibody was immobilized on a CM5 sensor chip in a covalent manner using the Amine coupling Kit according to manufacturer's instructions. Humanized anti-hCD47 IgGs were injected as ligand to reach a surface coverage of approximately 100 RU-400 RU. Recombinantly expressed human CD47 extracellular domain was used as analyte and injected in increasing concentrations (e. g. from 3.9 to 1000 nM), with standard association time of 120 s and dissociation time of 600 s. Experiments were performed in multi-cycle kinetics runs, with regeneration between sample injection with the respective regeneration buffer (3M MgCl2 for the human antibody capture kit). All reagents were diluted in HBS-EP+ buffer (Cytiva). Data are fit to a simple 1:1 interaction model using the global data analysis option available within BiaEvaluation 2.0.1 software. The dissociation constant (KD) was used as a value for the affinity and was calculated from the ratio between Koff and Kₒₙ.", "units": {"Kd": "nM"}}
{"binder": "B1", "Kd": 974}
{"binder": "B2", "Kd": 176}
{"binder": "B3", "Kd": 203}
{"binder": "B4", "Kd": 311}
{"binder": "B5", "Kd": 1320}
{"binder": "B6", "Kd": 219}
{"binder": "B7", "Kd": 56.1}
{"target": "recombinant C-terminally His-tagged human CD47 (extracellular domain) (human) (UniProt Q08722)", "sequence (Q08722 19-141)": "as above", "test": "SPR, Biacore X100; construct captured by anti-human Fc on CM5 chip, human CD47 extracellular domain as analyte, 1:1 fit", "units": {"Kd": "nM"}}
{"binder": "B8", "Kd": 406}
{"binder": "B9", "Kd": 1110}
{"binder": "B10", "Kd": 176}
{"target": "T2, human CD47 on cells (human, UniProt Q08722 19-323)", "T2 construct": "also called CD47 on Molm-13, OVCAR-3, Suit-2 MSLN, HL-60 cells, red blood cells and CD47-transfected CHO cells", "T2 sequence (Q08722 19-323)": "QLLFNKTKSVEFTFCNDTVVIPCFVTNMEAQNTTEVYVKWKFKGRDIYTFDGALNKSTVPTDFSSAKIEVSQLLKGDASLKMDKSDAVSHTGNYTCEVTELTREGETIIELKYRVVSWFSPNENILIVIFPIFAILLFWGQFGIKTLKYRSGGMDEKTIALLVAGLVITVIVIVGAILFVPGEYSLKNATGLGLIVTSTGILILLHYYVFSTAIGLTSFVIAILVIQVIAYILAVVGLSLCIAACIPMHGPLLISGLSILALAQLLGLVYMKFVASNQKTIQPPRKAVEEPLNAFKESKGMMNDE", "test": "flow cytometry on CD47-positive Expi293 cells; MFI of the antibody over MFI of the isotype control", "experimental": "(§2) Initially, binding of anti-hCD47 IgG4, anti-hCD47 IgG1 antibodies and Fab domains were measured on CD47-expressing cells by flow cytometry. Cells were stained with 50 nM of antibody followed by staining with a secondary fluorescently labelled anti-human IgG Fc or light-chain antibody, and analyzed by flow cytometry. Binding was measured by calculating the median fluorescence intensity (MFI) ratio, by dividing MFI of the antibody by the MFI of the isotype control."}
{"binder": "B11", "binding result": "no binding (tested: 50 nM (not on the sheet))"}
{"binder": "B12", "binding result": "no binding (tested: 50 nM (not on the sheet))"}
{"binder": "B13", "binding result": "no binding (tested: 50 nM (not on the sheet))"}
{"binder": "B14", "binding result": "no binding (tested: 50 nM (not on the sheet))"}
{"binder": "B15", "binding result": "no binding (tested: 50 nM (not on the sheet))"}
{"binder": "B16", "binding result": "no binding (tested: 50 nM (not on the sheet))"}
{"binder": "B17", "binding result": "no binding (tested: 50 nM (not on the sheet))"}
{"target": "T1, recombinant C-terminally His-tagged …", "test": "SPR, Biacore X100; antibody captured by anti-human Fc on a CM5 chip, CD47 extracellular domain as analyte, 1:1 fit", "experimental": "as §1", "units": {"Kd": "nM", "koff": "s⁻¹", "kon": "M⁻¹ s⁻¹"}}
{"binder": "B1", "Kd": 970, "koff": 0.48, "kon": 490000}
{"binder": "B2", "Kd": 170, "koff": 0.13, "kon": 760000}
{"binder": "B3", "Kd": 203, "koff": 0.36, "kon": "1.8e+06"}
{"binder": "B4", "Kd": 310, "koff": 0.22, "kon": 710000}
{"binder": "B5", "Kd": 1310, "koff": 0.32, "kon": 250000}
{"binder": "B6", "Kd": 219, "koff": 0.16, "kon": 720000}
{"target": "T2, human CD47 on cells", "test": "flow cytometry on CD47-positive Expi293 cells, 50 nM antibody; MFI of the antibody over MFI of the isotype control", "experimental": "as §2"}
{"binder": "B18", "MFI ratio": 1.58}
{"binder": "B11", "MFI ratio": 1.06}
{"binder": "B2", "MFI ratio": 4.95}
{"binder": "B19", "MFI ratio": 3.12}
{"binder": "B20", "MFI ratio": 3.92}
{"binder": "B21", "MFI ratio": 3.29}
{"binder": "B12", "MFI ratio": 1.08}
{"binder": "B3", "MFI ratio": 3.42}
{"binder": "B22", "MFI ratio": 4.51}
{"binder": "B23", "MFI ratio": 4.1}
{"binder": "B13", "MFI ratio": 1.05}
{"binder": "B14", "MFI ratio": 1.03}
{"binder": "B4", "MFI ratio": 4.14}
{"binder": "B15", "MFI ratio": 1.15}
{"binder": "B16", "MFI ratio": 1.06}
{"binder": "B17", "MFI ratio": 1.07}
